Measured values published in the supplement of paper PMC11208486.
± gives the uncertainty stated by the source.

Test: melting temperature (ThermoFMN); higher = more thermostable
Protocol: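 Purified His-tagged ene reductases (1 mg/ml) in 50 mM sodium phosphate pH 7.4 with 0-30% (v/v) organic co-solvent. Melting temperature was measured by the ThermoFMN assay (FMN fluorescence, 20-90 °C at 1 °C/min, inflection point, triplicate). Specific initial activity was measured with 10 mM cyclohex-2-enone and 0.2 mM NAD(P)H (NADH for LacER) as A340 depletion, at room temperature (DMSO, 2-propanol, n-propanol) or 25 °C (EtOH, MeOH), in triplicate. The TsOYE Tm is above the 90 °C measurement range.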

[1] = co-solvent: 2-propanol, co-solvent concentration (% v/v): 0
[2] = co-solvent: 2-propanol, co-solvent concentration (% v/v): 5
[3] = co-solvent: 2-propanol, co-solvent concentration (% v/v): 10
[4] = co-solvent: 2-propanol, co-solvent concentration (% v/v): 15
[5] = co-solvent: 2-propanol, co-solvent concentration (% v/v): 20
[6] = co-solvent: 2-propanol, co-solvent concentration (% v/v): 25
[7] = co-solvent: 2-propanol, co-solvent concentration (% v/v): 30
[8] = co-solvent: dimethyl sulfoxide, co-solvent concentration (% v/v): 0
[9] = co-solvent: dimethyl sulfoxide, co-solvent concentration (% v/v): 5
[10] = co-solvent: dimethyl sulfoxide, co-solvent concentration (% v/v): 10
[11] = co-solvent: dimethyl sulfoxide, co-solvent concentration (% v/v): 15
[12] = co-solvent: dimethyl sulfoxide, co-solvent concentration (% v/v): 20
[13] = co-solvent: dimethyl sulfoxide, co-solvent concentration (% v/v): 25
[14] = co-solvent: dimethyl sulfoxide, co-solvent concentration (% v/v): 30
[15] = co-solvent: ethanol, co-solvent concentration (% v/v): 0
[16] = co-solvent: ethanol, co-solvent concentration (% v/v): 5
[17] = co-solvent: ethanol, co-solvent concentration (% v/v): 10
[18] = co-solvent: ethanol, co-solvent concentration (% v/v): 15
[19] = co-solvent: ethanol, co-solvent concentration (% v/v): 20
[20] = co-solvent: ethanol, co-solvent concentration (% v/v): 25
[21] = co-solvent: ethanol, co-solvent concentration (% v/v): 30
[22] = co-solvent: methanol, co-solvent concentration (% v/v): 0
[23] = co-solvent: methanol, co-solvent concentration (% v/v): 5
[24] = co-solvent: methanol, co-solvent concentration (% v/v): 10
[25] = co-solvent: methanol, co-solvent concentration (% v/v): 15
[26] = co-solvent: methanol, co-solvent concentration (% v/v): 20
[27] = co-solvent: methanol, co-solvent concentration (% v/v): 25
[28] = co-solvent: methanol, co-solvent concentration (% v/v): 30
[29] = co-solvent: n-propanol, co-solvent concentration (% v/v): 0
[30] = co-solvent: n-propanol, co-solvent concentration (% v/v): 5
[31] = co-solvent: n-propanol, co-solvent concentration (% v/v): 10
[32] = co-solvent: n-propanol, co-solvent concentration (% v/v): 15
[33] = co-solvent: n-propanol, co-solvent concentration (% v/v): 20
[34] = co-solvent: n-propanol, co-solvent concentration (% v/v): 25
[35] = co-solvent: n-propanol, co-solvent concentration (% v/v): 30

Row | Sequence | melting temperature [1] | melting temperature [2] | melting temperature [3] | melting temperature [4] | melting temperature [5] | melting temperature [6] | melting temperature [7] | melting temperature [8] | melting temperature [9] | melting temperature [10] | melting temperature [11] | melting temperature [12] | melting temperature [13] | melting temperature [14] | melting temperature [15] | melting temperature [16] | melting temperature [17] | melting temperature [18] | melting temperature [19] | melting temperature [20] | melting temperature [21] | melting temperature [22] | melting temperature [23] | melting temperature [24] | melting temperature [25] | melting temperature [26] | melting temperature [27] | melting temperature [28] | melting temperature [29] | melting temperature [30] | melting temperature [31] | melting temperature [32] | melting temperature [33] | melting temperature [34] | melting temperature [35]
1 | MSFVKDFKPQALGDTNLFKPIKIGNNELLHRAVIPPLTRMRALHPGNIPNRDWAVEYYTQRAQRPGTMIITEGAFISPQAGGYDNAPGVWSEEQMVEWTKIFNAIHEKKSFVWVQLWVLGWAAFPDNLARDGLRYDSASDNVFMDAEQEAKAKKANNPQHSLTKDEIKQYIKEYVQAAKNSIAAGADGVEIHSANGYLLNQFLDPHSNTRTDEYGGSIENRARFTLEVVDALVEAIGHEKVGLRLSPYGVFNSMSGGAETGIVAQYAYVAGELEKRAKAGKRLAFVHLVEPRVTNPFLTEGEGEYEGGSNDFVYSIWKGPVIRAGNFALHPEVVREEVKDKRTLIGYGRFFISNPDLVDRLEKGLPLNKYDRDTFYQMSAHGYIDYPTYEEALKLGWDKK | 45 °C | 44 ± 1 °C | 41.3 ± 2.1 °C | 37.3 ± 0.58 °C | 34.7 ± 0.58 °C | 33.7 ± 0.58 °C | 28.3 ± 2.5 °C | 45 °C | 44.3 ± 0.58 °C | 43.3 ± 0.58 °C | 42 °C | 40.7 ± 0.58 °C | 39.3 ± 0.58 °C | 37.3 ± 0.58 °C | 45.3 ± 0.58 °C | 43.3 ± 0.58 °C | 42 ± 1 °C | 39.7 ± 0.58 °C | 37.7 ± 0.58 °C | 35.3 ± 1.1 °C | 34.3 ± 0.58 °C | 46 °C | 45 ± 1 °C | 43 ± 1 °C | 42 ± 1 °C | 40.3 ± 0.58 °C | 37.7 ± 1.1 °C | 34.7 ± 2.1 °C | 45 °C | 40.3 ± 0.58 °C | 34.7 ± 0.58 °C | 31.7 ± 0.58 °C | 31 °C | 30.3 ± 0.58 °C | 27.3 ± 1.1 °C
2 | MNPKYKPLFEPFTFKSGVTINNRIAVAPMTHYASNEDGTISEAELDYIIPRSKEMGMVITACANVTPDGKAFPGQPAIHDDSNIPGLKKLAQAIQAQGAKAVVQIHHGGIECPSELVPQQDVVGPSDVFDNGKQIARALTEEEVENIVKAFGEATRRAIEAGFDGVEIHGANGYLIQQFYSPKTNQRTDRWGGSDEKRLAFPLAIVDEVKKAASEHAKGAFLVGYRLSPEEPETPGLTMTETYTLVDALGDKELDYLHISLMDVNSKARRGADPTRTRMDLLNERVGNKVPLIAVGSIHSADDALAVIENGIPLVAMGREILVDPNWTVKVKEGREKQIETVIKGTDKEKYHLPEPLWQAIVNTQGWVPYKD | 54 °C | 46 °C | 39.3 ± 1.1 °C | 39.3 ± 4.5 °C | 33.7 ± 0.58 °C | 32.7 ± 1.1 °C | 33.7 ± 0.58 °C | 54 °C | 51.7 ± 0.58 °C | 51 °C | 50 °C | 50 °C | 49.7 ± 0.58 °C | 49.7 ± 0.58 °C | 54 °C | 51 ± 1 °C | 45.3 ± 1.1 °C | 42 ± 1 °C | 38.7 ± 0.58 °C | 38.3 ± 0.58 °C | 36.3 ± 0.58 °C | 54 °C | 52.3 ± 0.58 °C | 49.7 ± 0.58 °C | 43.7 ± 2.5 °C | 44.3 ± 0.58 °C | 42.3 ± 1.1 °C | 40 ± 3.6 °C | 54 °C | 43.7 ± 2.1 °C | 33 ± 1 °C | 31.3 ± 0.58 °C | 30.3 ± 0.58 °C | 29.3 ± 0.58 °C | 30.3 ± 0.58 °C
